Measured values reported in patent US20240301076A1.

Target: human CXCR2 (human) (UniProt P25025)
Experiment: cell-based or functional assay

human CXCR2 (human), sequence (P25025 whole entry): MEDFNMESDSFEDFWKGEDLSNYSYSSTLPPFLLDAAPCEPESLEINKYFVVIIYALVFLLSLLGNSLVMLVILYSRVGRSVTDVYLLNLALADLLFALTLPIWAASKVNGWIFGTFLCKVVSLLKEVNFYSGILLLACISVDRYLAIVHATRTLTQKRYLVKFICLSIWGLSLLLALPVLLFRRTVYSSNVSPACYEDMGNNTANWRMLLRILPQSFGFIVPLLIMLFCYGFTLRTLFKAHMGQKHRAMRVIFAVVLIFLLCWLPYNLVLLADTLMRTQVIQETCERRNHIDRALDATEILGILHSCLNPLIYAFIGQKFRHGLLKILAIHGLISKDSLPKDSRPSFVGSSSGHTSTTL
human CXCL6, sequence (P80162 38-114 limits assumed): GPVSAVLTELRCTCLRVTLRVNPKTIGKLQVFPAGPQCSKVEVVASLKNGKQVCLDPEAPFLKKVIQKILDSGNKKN
human CXCL8, sequence (P10145 28-99 limits assumed): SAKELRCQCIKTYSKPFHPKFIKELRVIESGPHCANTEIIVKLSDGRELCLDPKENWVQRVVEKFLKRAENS
human CXCL2, sequence (P19875 35-107 limits assumed): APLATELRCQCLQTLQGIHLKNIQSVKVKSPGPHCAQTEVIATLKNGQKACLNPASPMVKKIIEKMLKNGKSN
human CXCL5, sequence (P42830 37-114 limits assumed): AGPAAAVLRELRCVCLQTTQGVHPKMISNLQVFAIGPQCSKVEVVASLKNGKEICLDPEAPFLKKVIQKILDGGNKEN
human CXCL1, sequence (P09341 35-107 limits assumed): as the sequence (P19875 35-107 limits assumed) above, with P2S, L3V, L20P, K27N, Q48R, M58I, K68N, N69S, G70D counted along it
human CXCL3, sequence (P19876 35-107 limits assumed): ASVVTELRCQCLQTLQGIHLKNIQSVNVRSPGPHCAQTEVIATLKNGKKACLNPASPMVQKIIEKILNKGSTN

Work on “human CXCL2 (from UniProt P19875 35-107) (ligand)” yielded an EC50 mean, Tango assay of 33.3 nM and an EC50 mean, calcium flux assay of 37 nM.

With “Antagonist 4 (anti-CXCR2 antibody clone 6C6, BD Biosciences 555932)” the CXCL1 IC50, calcium flux was 1.29 nM, the CXCL1 IC50, β-arrestin recruitment was 1.47 nM and the CXCL1 Maximal Inhibition %, calcium flux was 93%. For the same substance, the CXCL1 Maximal Inhibition %, β-arrestin recruitment was 96%, the CXCL5 IC50, β-arrestin recruitment was 0.75 nM and the CXCL5 Maximal Inhibition %, β-arrestin recruitment was 99%. It also gave a CXCL8 IC50, β-arrestin recruitment of 1.01 nM, a CXCL8 Maximal Inhibition %, calcium flux of 1% and a CXCL8 Maximal Inhibition %, β-arrestin recruitment of 94%.

With “human CXCL1 (from UniProt P09341 35-107) (ligand)” the EC50 mean, Tango assay was 2.3 nM and the EC50 mean, calcium flux assay was 2.62 nM.

For “human CXCL8 (from UniProt P10145 28-99) (ligand)”, the EC50 mean, Tango assay was 2.2 nM and the EC50 mean, calcium flux assay was 3.2 nM.

Substance “Antagonist 3 (anti-CXCR2 antibody clone 48311, R&D systems MAB331-500)” has a CXCL1 IC50, calcium flux of 30.7 nM, a CXCL1 IC50, β-arrestin recruitment of 14.8 nM and a CXCL1 Maximal Inhibition %, calcium flux of 37%. It also gave a CXCL1 Maximal Inhibition %, β-arrestin recruitment of 85%, a CXCL5 IC50, β-arrestin recruitment of 8.12 nM and a CXCL5 Maximal Inhibition %, β-arrestin recruitment of 96%. It also gave a CXCL8 Maximal Inhibition %, calcium flux of 18% and a CXCL8 Maximal Inhibition %, β-arrestin recruitment of 82%.

“human CXCL5 (from UniProt P42830 37-114) (ligand)” was tested, and the EC50 mean, Tango assay was 97.7 nM and the EC50 mean, calcium flux assay was 39.2 nM.

In the case of “human CXCL3 (from UniProt P19876 35-107) (ligand)”, the EC50 mean, Tango assay is reported as 11.9 nM and the EC50 mean, calcium flux assay is reported as 12.2 nM.

“human CXCL6 (from UniProt P80162 38-114) (ligand)” was tested, and the EC50 mean, Tango assay was 9.4 nM and the EC50 mean, calcium flux assay was 28.9 nM.
